Assay results reported in publication PMC4383860, “Crystal structure of human persulfide dioxygenase: structural basis of ethylmalonic encephalopathy” (Human Molecular Genetics, 2015).

How the values were obtained:
[1] = target: the molecule itself; test: native MS + SEC-MALS; dimer to monomer ratio told for both methods together; self-association, dimer
[2] = target: the molecule itself; test: SEC-MALS; printed as MALS (multi-angle laser light scattering) of hETHE1 after purification, two peaks; self-association
[3] = target: the molecule itself; test: native MS; non-denaturing electrospray soft-ionization MS; 15 µM hETHE1 in 15 mM ammonium acetate buffer (pH 7.5); cone voltage 80 V; self-association, dimer

B1: human ethylmalonic encephalopathy protein 1 (hETHE1), lacking its 20 residue N-terminal mitochondrial targeting sequence (enzyme, UniProt O95571 21-254, looked up)
chain: APILLRQMFEPVSCTFTYLLGDRESREAVLIDPVLETAPRDAQLIKELGLRLLYAVNTHCHADHITGSGLLRSLLPGCQSVISRLSGAQADLHIEDGDSIRFGRFALETRASPGHTPGCVTFVLNDHSMAFTGDALLIRGCGRTDFQQGCAKTLYHSVHEKIFTLPGDCLIYPAHDYHGFTVSTVEEERTLNPRLTLSCEEFVKIMGNLNLPKPQQIDFAVPANMRCGVQTPTA
modifications: Cys247 refined as cysteinyl sulfinic acid (CSD247) in the crystal; +30 Da seen only in the dimer by non-denaturing mass spectrometry
notes: the start at residue 21 is worked out from that statement; Printed masses: monomer 26 116 Da, dimer 52 232 Da; also called human persulfide dioxygenase; sulphur dioxygenase; not shown: His6, N-terminal, cleaved
- dimer to monomer ratio [1]: ~10
- stoichiometry N [2]: 4
- stoichiometry N [3]: 2
